US12723255B2, “Herbicide tolerance genes and methods of use thereof” (priority 2014, dated 2026)
Values joined by “and” are separate entries in the source; they are usually repeats but may differ in a detail not shown here. Identical values can stand only once.

Legend:
[1] = test system: transgenic soybean plants; experiment: R0 soybean 2,4-D spray test of 2,4-D optimized variants; type: in vivo
Description: An additional five engineered proteins optimized for activity for 2,4-D were then selected for analysis in transgenic soybean. DNA constructs were produced for expressing MON-HT13 (SEQ ID NO:47), MON-HT14 (SEQ ID NO:48), MON-HT15 (SEQ ID NO:49), MON-HT17 (SEQ ID NO:51), and MON-HT18 (SEQ ID NO:52) with codon usage optimized for dicot expression. The operably linked expression elements (promoter, leader, intron, CTP, and 3′UTR) were identical in all of the constructs. Leaf samples were taken from R0 plantlets and single copy plants were identified using a PCR-based assay. When the single-copy R0 plants had approximately two to three trifoliate leaves, they were treated with either 1.5 lb ae/acre (2×) or 3.0 lb ae/acre (4×) of 2,4-D. Seven days after herbicide application, the plants were scored for herbicide injury based on the percent area of the plant showing injury, as indicated above.

transgenic soy plants = experiment: soy green house tolerance to synthetic auxins; type: in vivo, soybean; details: for Average soy % crop injury for 4 reps, 2,4-D Amine / Average soy % crop injury for 4 reps, MCPA: 2X rate 1680 g ae/ha
F1 hybrid maize plants [2] = experiment: maize green house tolerance to synthetic auxins; type: in vivo; details: 'A' CTP, Events 1-3 in columns
F1 hybrid maize plants [3] = experiment: plant-based growth chamber assay for temperature-sensitive quizalofop-P tolerance; type: in vivo
Description: The finding that hybrid plants expressing the engineered proteins MON-HT55 or MON-HT51 were sensitive to quizalofop-P application when grown in field conditions of high temperature was confirmed using a plant-based assay. The plant-based assay was designed to test tolerance to quizalofop-P of F1 hybrids in the growth chamber prior to field testing. The assay was developed using F1 hybrids of plants containing maize events NK603 (U.S. Pat. No. 8,273,959)×MON89034 (U.S. Pat. No. 8,581,047) and F1 hybrids of plants containing MON-HT55×MON89034. F1 hybrid seed was germinated in a growth chamber for 1 week and then moved to one of three different growth chambers to acclimate for two days at day/night temperatures of 20° C./20° C., 28° C./20° C., and 38° C./30° C. prior to application of 2× (0.16 lb ai/acre) quizalofop-P. As expected, the plants not containing MON-HT55 at all temperature regimens were severely injured by 2× quizalofop-P application (FIG. 1B). […] (FIG. 1C). This confirmed that the plant-based assay could be used to screen proteins in plants in the growth chamber for temperature-sensitive activity.

F1 hybrid maize plants [4] = experiment: plant-based assay for heat sensitivity, quizalofop-P tolerance; type: in vivo; details: 2× quizalofop-P, ten days post treatment, 0 no visible injury, 5 dead plants
Experimental: A plant-based enzyme activity assay for heat sensitivity was used to determine the effect of elevated growth temperatures on the herbicide tolerance of transgenic plants containing the optimized engineered proteins. To test for quizalofop-P tolerance at elevated growth temperatures, F1 hybrid (produced by crossing an R1 homozygous plant expressing one of the MON-HT proteins with inbred maize event MON89034) maize seed was grown in a growth chamber for 10 days at a day temperature of 28° C. and a night temperature of 20° C. with 50% humidity. After 10 days, the plants were moved to acclimate for 3 days at one of three different day and night temperature regimens: (1) both day and night temperatures set at 20° C.; (2) day temperature at 28° C. and night temperature at 20° C.; or (3) day temperature at 38° C. and night temperature at 30° C. At the end of the acclimation period, the plants were generally at V4 growth stage and were sprayed with 2× quizalofop-P. Ten days post treatment the plants were scored for injury on a rating scale of 1 to 5 where ‘0’ is no visible injury observed, ‘1’ is chlorotic speckling, ‘2’ is chlorotic streaking, ‘3’ there are leaf gaps or tears, ‘4’ are plants with stunted growth and/or twisted leaves, and ‘5’ are dead plants or no growth observed. […] (FIG. 4A) or 28° C./20° C. […]

F1 hybrid maize plants [5] = experiment: 2,4-D tolerance at elevated growth temperatures; type: in vivo; details: 4× 2,4-D amine; day/night 38° C./30° C.; ten days after treatment
Experimental: To test for 2,4-D tolerance at elevated growth temperatures, F1 hybrid plants were produced by crossing an R1 plant containing MON-HTI, MON-HT2, MON-HT3, MON-HT4, MON-HT7, or MON-HT55 with an inbred plant containing maize event MON89034. The F1 hybrid plants were grown in a greenhouse for one week at a minimum temperature of 20° C. and a maximum temperature of 28° C. with 50 to 80% humidity. After 1 week, the plants were moved to acclimate for three days at one of two different day and night temperature regimens: (1) both day and night temperatures set at 20° C. or (2) day temperature at 38° C. and night temperature at 30° C. At the end of the acclimation period, the plants were generally at V4 growth stage and were sprayed with 4× 2,4-D amine. Ten days after treatment the plants were scored for injury using an injury scale of 0 to 100 with “0” being no injury and “100” being a dead plant. When plants were acclimated at day/night temperatures of 20° C./20° C. prior to application of 4× 2,4-D amine, F1 plants containing MON-HT1, MON-HT2, MON-HT3, MON-HT4, MON-HT7, or MON-HT55 had injury rating averages of <10%, and the control plants had injury rating averages of <20% (FIG. 4D). […]

[6] = 2X rate 840 g ae/ha, Events 1-3 in columns, seven days after treatment
[7] = Events 1-3 in columns, seven days after treatment
[8] = Events 1-3 in columns, seven days after treatment, listed as MON-HTI

B1: MON-HT1: engineered oxygenase protein, amino acid sequence SEQ ID NO:14 (protein)
chain: MHAALTPLTNKYRFIDVQPLTGVLGAEITGVDLREPLDDSTWNEILDAFHTYQVIYFPGQAITNEQHIAFSRRFGPVDPVPILKSIEGYPEVQMIRREANESSRFIGDDWHTDSTFLDAPPAAVVMRAIEVPEYGGDTGFLSMYSAWETLSPTMQATIEGLNVVHSATKVFGSLYQATNWRFSNTSVKVMDVDAGDRETVHPLVVTHPVTGRRALYCNQVYCQKIQGMTDAESKSLLQFLYEHATKFDFTCRVRWKKDQVLVWDNLCTMHRAVPDYAGKFRYLTRTTVAGDKPSR
[1]; 2,4-D rate 2X (1.5 lb ae/acre), single copy R0 soy, seven days after application
  Events with <20% injury: 12
[1]; 2× application rate, soy
  tolerance to 2,4-D treatment: excellent tolerance
Transgenic soy plants; [6]
  Average soy % crop injury for 4 reps, fluroxypyr: 96.3% and 93.8% and 97.5%
  Average soy % crop injury for 4 reps, triclopyr: 81.3% and 90.0%
Transgenic soy plants; [7]
  Average soy % crop injury for 4 reps, 2,4-D Amine: 4.5% and 6.5% and 5.3%
  Average soy % crop injury for 4 reps, MCPA: 90.0% and 72.5%
Transgenic soy plants; [8]
  Average soy % crop injury for 4 reps, 2,4-D Amine: less than 7%
  Average soy % crop injury for 4 reps, MCPA: 72% and 90%
Transgenic soy plants; 2× rate 840 g ae/ha
  soy crop injury, triclopyr or fluroxypyr, across all three events: 81-97%
F1 hybrid maize plants [2]; 4X rate 1680 g ae/ha
  Average maize % crop injury for 4 reps, fluroxypyr: 20.0% and 21.3%
  Average maize % crop injury for 4 reps, triclopyr: 26.3% and 37.5% and 35.0%
F1 hybrid maize plants [2]; 4X rate 3360 g ae/ha, listed as MON-HTl
  Average maize % crop injury for 4 reps, MCPA: 20%

B2: MON-HT55: engineered oxygenase protein, amino acid sequence SEQ ID NO:11 (protein)
chain: MHAALSPLSQRFERIAVQPLTGVLGAEITGVDLREPLDDSTWNEILDAFHTYQVIYFPGQAITNEQHIAFSRRFGPVDPVPLLKSIEGYPEVQMIRREANESGRVIGENWHTDSTFLDAPPAAVVMYAKEIPPYGGDTLFTSMYTAWETLSPTMQATIEGLNVVHSATRVFGSLYQAQNRRFSNTSVKVMDVDAGDRETVHPLVVTHPETGRKGLYVNQVYCQRIEGMSEKESEPLLSFLFAHATKPEFTCRVRWQEGDVLVWDNLCTQHYAVPDYAGKFRYLTRTTVGGVRPAR
F1 hybrid maize plants [3]; acclimated at day/night 20° C./20° C. or 28° C./20° C.
  tolerance to 2× quizalofop-P application: good tolerance
F1 hybrid maize plants [3]; acclimated at day/night 38° C./30° C.
  tolerance to 2× quizalofop-P application: significant sensitivity
F1 hybrid maize plants [4]; day/night 20° C./20° C. or 28° C./20° C.
  injury rating: around 2
F1 hybrid maize plants [4]; day/night 38° C./30° C.
  injury rating: 3
F1 hybrid maize plants [5]
  injury rating averages: 50%
